# Data as given in patent US8846868B2, “Anti-AREG/HB-EGF antibodies and treatment” (Fusion Antibodies Limited, priority 2008, dated 2014).
# B1: 8d7 1c8 1e9: cross-specific AREG/HBEGF murine monoclonal antibody; VH Sequence ID No: 5, VL Sequence ID No: 6 (antibody, listed as Mus musculus)
# VH: MEWSWVILFLMAVVTGVNSEVQLQQSGAELVRPGALVKLSCKASGFNIKDSYIHWVNQRPEQGLEWIGWIDPENGNTIYDPKFQGKASITADTSSNTAYLQLSSLTSEDTAVYYCVSASYRYGFSYWGQGTLVTVSAAKTTPPSVYPWVPGSLX
# VL: XADXISISCRSNKSLLHTNGNTYLYWFLQRPGQSPQLLIYRMSNLASGVPDRFSGSGSGTAFTLRISRVEAEDVGVYYCMQHLEYPYTFGGGTKLEIKRXX
# modifications: not fully specified; (154)..(154) Xaa can be any naturally occurring amino acid; (1)..(1) Xaa can be any naturally occurring amino acid
# B2: 8d7 1f6 2f7: cross-specific AREG/HBEGF murine monoclonal antibody; VH Sequence ID No: 7, VL Sequence ID No: 8 (antibody, listed as Mus musculus)
# VH: MKCSWIIFFLMAVVTGVNSEVQLQQSGAELVRPGALVKLSCKASGFNIKDSYIHWVNQRPEQGLEWIGWIDPENGNTIYDPKFQGKASITADTSSNTAYLQLSSLTSEDTAVYYCVSASYRYGFSYWGQGTLVTVSAAKTTPPPVYPLAPGSL
# VL: MRAPAQFLGLLVLWIPGAIGDIVMTQAAPSVPVTPGESVSISCRSNKSLLHTNGNTYLYWFLQRPGQSPQLLIYRMSNLASGVPDRFSGSGSGTAFTLRISRVEAEDVGVYYCMQHLEYPYTFGGGTKLEIKRADAAPTVSIFPPSSKLG
# B3: 8d7 1f6 2b3: cross-specific AREG/HBEGF murine monoclonal antibody; VH Sequence ID No: 9, VL Sequence ID No: 10 (antibody, listed as Mus musculus)
# VH: MKCSWVMFFLMAVVTGVNSEVQLQQSGAELVRPGALVKLSCKASGFNIKDSYIHWVNQRPEQGLEWIGWIDPENGNTIYDPKFQGKASITADTSSNTAYLQLSSLTSEDTAVYYCVSASYRYGFSYWGQGTLVTVSAAKTTPPPVYPLAPGSL
# VL: MRPPLSFLGLLVLWIPGAIGDIVMTQAAPSVPVTPGESVSISCRSNKSLLHTNGNTYLYWFLQRPGQSPQLLIYRMSNLASGVPDRFSGSGSGTAFTLRISRVEAEDVGVYYCMQHLEYPYTFGGGTKLEIKRADAAPTVSIFPPSSKLG
# B4: Recombinant HBEGF: recombinant HBEGF ligand used to stimulate cell growth and EGFR phosphorylation (protein)
# chain: DLQEADLDLLRVTLSSKPQALATPNKEEHGKRKKKGKGLGKKRDPCLRKYKDFCIHGECKYVKELRAPSCICHPGYHGERCHGLSL
# Key:
# cell growth = assay: Comparison of cross-specific antibody to Cetuximab, MTT cell viability; assay type: cell-based; conditions: cell growth assay
# Procedure: Antibodies were added to cells at concentration of 20 ug/ml and 40 ug/ml alone and in combination with chemotherapy treatment. Cell viability was assessed 72 hrs after treatment by MTT assay. ** indicates nt P<0.001. * indicates p<0.05.
# [1] = test system: colorectal cancer cell line LoVo; assay: HBEGF ligand stimulated growth, MTT assay; assay type: cell-based
# Procedure: Different concentrations of cross-specific antibody was preincubated with ligand for an hour before addition to cells. Cell viability was assessed 48 hrs after treatment by MTT assay.
# (§1) Cell viability was assessed by 3-(4,5-dimethylthiazol-2-yl)-2,5-diphenyltetrazolium bromide (MTT, Sigma) assay (Mosmann, 1983). To assess chemotherapy/siRNA interactions 5000 cells were seeded per well on 96 well plate. After 24 hours cells were transfected with siRNA and treated with various chemotherapeutic agents at different concentrations. After 48 hours MTT (1.0 mg/ml) was added to each well and cells were incubated at 37° C. for 2 hours. The culture media was removed and formazan crystals were reabsorbed in 200 μl DMSO. Cell viability was determined by reading the absorbance of each well at 570 nm using a microplate reader (Tecan Sunrise, Biorad, UK).
# [2] = test system: pEGFR(Tyr 1068) in LoVo cells; assay: Ligand stimulated phosphorylation of EGFR, LoVo; assay type: cell-based; conditions: antibody pre-incubated with recombinant HBEGF 1 hour, 20 mins stimulation
# Procedure: Cells were serum starved before addition of antibody and ligand. Cross-specific antibody (8d7 1f6 2f7, i.e. “2F7”) was pre-incubated with recombinant HBEGF for 1 hour before addition to cells. Cells were stimulated for 20 mins before preparation of cell lysates. 30 μg of protein was loaded on SDS-PAGE gel and transferred to nitrocellulose membrane. The membrane was probed with anti pEGFR(Tyr 1068)
# (§2) 1.5×10^6 cells were seeded in […] in media containing 10% serum. 24 hrs after seeding cells were serum starved for 4 hrs. Antibodies were preincubated for 1 hour with 30 ng/ml of recombinant HBEGF before being added to cells for 20 mins in 2% serum. Cells were washed 3 times in PBS containing phosphatase inhibitors and scraped. Cells were pelleted and lysed. Protein concentration was determined and 30 ug of protein ran on SDS-PAGE for western blot analysis. Blots were probed with pEGFR(Tyr^1068) antibody.
# [3] = test system: pEGFR(Tyr1068) in HCT116 cells; assay: Ligand stimulated phosphorylation of EGFR, HCT116; assay type: cell-based, human; conditions: antibody pre-incubated with recombinant HBEGF 1 hour, 20 mins stimulation
# Procedure: (§3) Cells were serum starved before addition of antibody and ligand. Cross-specific antibody (8d7 1f6 2f7, i.e. “2F7”) was pre-incubated with recombinant HBEGF for 1 hour before addition to cells. Cells were stimulated for 20 mins before preparation of cell lysates. 30 μg of protein was loaded on SDS-PAGE gel and transferred to nitrocellulose membrane. The membrane was probed with anti pEGFR(Tyr^1068)
# as §2
# [4] = test system: cancer cell proliferation; assay: Cancer cell proliferation, cross-specific antibody alone or with cpt11, MTT assay; assay type: cell-based; conditions: 100 nM antibody in combination with 10 μM cpt11; MTT 72 hrs
# Procedure: Cells were treated with 100 nM isotype control or 100 nM cross-specific antibody (8d7 1f6 2f7 i.e. “2F7” or 8d7 1f6 2b3 i.e. “2B3” alone or in combination with 10 μM cpt11. Cells were analysed by MTT assay after 72 hrs treatment. ** indicates statistically significant P<0.001. 2B3 RI value is 0.99 therefore an additive effect. 2F7 RI value is 1.1 therefore (slightly) synergistic.
# as §1
# [5] = test system: pEGFR(Tyr1068) in MDA-MB231 cells; assay: Ligand stimulated phosphorylation of EGFR, MDA-MB231; assay type: cell-based, human; conditions: antibody pre-incubated with recombinant HBEGF 1 hour, 20 mins stimulation
# Procedure: as §3, §2
molecule,measurement,setting,value
"CCc1c2c(nc3ccc(OC(=O)N4CCC(N5CCCCC5)CC4)cc13)-c1cc3c(c(=O)n1C2)COC(=O)[C@]3(O)CC [cpt-11, irinotecan]",IC30,cell growth,5 µM
B1,effect on HBEGF stimulation of cell growth,[1]; 300 nM antibody,prevents any stimulation of cell growth by HBEGF
same,inhibition of ligand induced growth,"[1]; different antibody concentrations pre-incubated with HBEGF 1 hr, MTT 48 hrs",inhibit the ligand induced growth in a dose dependent manner
B2,inhibition of HBEGF stimulated phosphorylation of EGFR,[2],inhibition of ligand stimulation phosphorylation of EGFR
same,inhibition of HBEGF stimulated phosphorylation of EGFR,[3],inhibition of ligand stimulation phosphorylation of EGFR
same,RI value,[4],1.1
same,inhibition of HBEGF stimulated phosphorylation of EGFR,[5],inhibition of ligand stimulation phosphorylation of EGFR
B3,RI value,[4],0.99
B4,stimulation of growth,"[1]; recombinant HBEGF ligand, MTT 48 hrs",approximately 60%
